Earlier results in paper PMC10188253 (Molecular pharmaceutics, 2022).
Like-named read-outs stand apart in the source and are kept apart here.

Test system: B16/F10 melanoma
Conditions: ref [25]

For ^64Cu-CB-TE1A1P-PEG4-LLP2A, the B16/F10 melanoma uptake (2 h post-injection) is given as 15.1 ± 1.0 % ID/g, the “VLA-4-specific uptake in normal lung, bone and spleen” value (2 h post-injection) is given as 4.6–18.1 % ID/g and the B16/F10 melanoma uptake (4 h post-injection) is given as 16.9 ± 2.2 % ID/g.
